# Measurements reported in US20230017777, “MONOCYTE AND MACROPHAGE BINDING APTAMERS AND THEIR APPLICATION” (University of Washington, published 2023).
# T1: CD14 (UniProt P08571 P08571:20-345)
# T1 sequence: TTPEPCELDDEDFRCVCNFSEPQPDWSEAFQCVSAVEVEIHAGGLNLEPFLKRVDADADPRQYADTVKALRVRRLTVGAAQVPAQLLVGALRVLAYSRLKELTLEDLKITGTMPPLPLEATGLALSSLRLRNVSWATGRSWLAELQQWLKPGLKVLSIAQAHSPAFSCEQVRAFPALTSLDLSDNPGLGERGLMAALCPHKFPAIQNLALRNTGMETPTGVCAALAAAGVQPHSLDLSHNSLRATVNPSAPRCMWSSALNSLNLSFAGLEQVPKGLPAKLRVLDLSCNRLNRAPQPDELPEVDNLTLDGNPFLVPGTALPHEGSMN
# B1: A2 (ssDNA)
# DNA: ATCCAGAGTGACGCAGCAGAAGAGTAGATGAAACGTTTTTTCGCCCGATAAAAGGGACGTGCGTCAGACATGGACACGGTGGCTTAGT
# B2: SCRM (scrambled / nonspecific control aptamer) (ssDNA)
# DNA: ATCCAGAGTGACGCAGCAATGATAGTGACGTACGGACTAGGGATCACCCATATCATGTAGAGGAAGTACGTGGACACGGTGGCTTAGT
# Tests used:
# CD14 [1] = target: T1, CD14; assay: BLI; no significant binding over SCRM; figure legend calls it SPR, text says BLI (Octet Red96); conditions: label: Cy5
# CD14 [2] = target: T1, CD14; assay: BLI; nonspecific aptamer control; conditions: label: Cy5 (flow cytometry)
Binder,binding result (CD14 [1]),binding result (CD14 [2])
B1,no binding,–
B2,–,no binding
